Laboratory results as given in IntAct's records for PubMed 16319076.

B1: Profilin-2 (Mus musculus), Q9JJV2-1 (parent)
chain: MAGWQSYVDNLMCDGCCQEAAIVGYCDAKYVWAATAGGVFQSITPVEIDMIVGKDREGFFTNGLTLGAKKCSVIRDSLYVDGDCTMDIRTKSQGGEPTYNVAVGRAGRVLVFVMGKEGVHGGGLNKKAYSMAKYLRDSGF
partner: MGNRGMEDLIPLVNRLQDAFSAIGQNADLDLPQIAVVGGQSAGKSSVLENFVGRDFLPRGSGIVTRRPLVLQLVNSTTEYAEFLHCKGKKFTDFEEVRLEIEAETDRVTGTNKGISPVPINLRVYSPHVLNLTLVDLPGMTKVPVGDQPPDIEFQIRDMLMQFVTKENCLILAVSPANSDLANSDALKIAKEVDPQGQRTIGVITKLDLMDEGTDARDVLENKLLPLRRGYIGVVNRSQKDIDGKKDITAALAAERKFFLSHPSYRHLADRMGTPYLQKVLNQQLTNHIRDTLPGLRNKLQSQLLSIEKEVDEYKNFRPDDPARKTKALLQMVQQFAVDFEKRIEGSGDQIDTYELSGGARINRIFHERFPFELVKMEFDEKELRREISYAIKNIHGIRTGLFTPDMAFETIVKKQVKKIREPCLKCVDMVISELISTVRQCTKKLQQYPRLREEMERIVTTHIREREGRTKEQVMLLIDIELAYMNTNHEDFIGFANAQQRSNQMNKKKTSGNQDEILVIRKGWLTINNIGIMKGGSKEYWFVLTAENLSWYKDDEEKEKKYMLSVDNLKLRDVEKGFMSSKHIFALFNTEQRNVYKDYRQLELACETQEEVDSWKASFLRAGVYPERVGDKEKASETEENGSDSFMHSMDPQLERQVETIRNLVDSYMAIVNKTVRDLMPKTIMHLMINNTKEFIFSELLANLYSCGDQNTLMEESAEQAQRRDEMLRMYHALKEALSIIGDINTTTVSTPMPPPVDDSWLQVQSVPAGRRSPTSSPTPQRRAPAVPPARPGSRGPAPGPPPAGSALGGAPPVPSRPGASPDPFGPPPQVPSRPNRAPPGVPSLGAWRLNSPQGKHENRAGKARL

Variants of: B1
Settings: with dyn1_mouse Dnm1, P39053

| Variant | effect of a mutation on the interaction |
| --- | --- |
| S138D | decreasing interaction |
